Measured values as given in paper PMC8034648, “Oligomeric complexes formed by Redβ single strand annealing protein in its different DNA bound states”.
Several values for one entry are separate records, joined by “and”; a condition that tells them apart may be missing. Equal values may be shown once.

Key:
[1] = biological target: Redβ single strand annealing protein from bacteriophage λ (bacteriophage λ) (UniProt P03698); experiment: native MS; Redβ (0.1 to 30 μM) with two complementary 38-mers added sequentially (dT38:dA38; at 1 μM also 38NC1+:38NC1- and 38NC3+:40NC3-), annealed duplex; 50 mM ammonium acetate pH 7
[2] = biological target: Redβ single strand annealing protein from bacteriophage λ (bacteriophage λ) (UniProt P03698); experiment: native MS; 1 μM Redβ with two complementary strands added sequentially (83-:83+ or 83-:87+), annealed duplex; 50 mM ammonium acetate pH 7
[3] = biological target: Redβ single strand annealing protein from bacteriophage λ (bacteriophage λ) (UniProt P03698); experiment: SEC-MALS; Redβ with 83- then 83+ added sequentially (annealed duplex); Superose 6 increase, PBS; loaded at 34 μM; n assumes one copy of 83-:83+
[4] = biological target: Redβ single strand annealing protein from bacteriophage λ (bacteriophage λ) (UniProt P03698); experiment: SEC-MALS; Redβ with dT38 then dA38 added sequentially (annealed duplex, 4 nt/monomer each); Superose 6 increase, PBS; loaded at 34 μM; n assumes one copy of dT38:dA38
[5] = biological target: Redβ single strand annealing protein from bacteriophage λ (bacteriophage λ) (UniProt P03698); experiment: native MS; Redβ (0.1 to 30 μM) with two complementary 38-mers added sequentially (dT38:dA38; at 1 μM also 38NC1+:38NC1- and 38NC3+:40NC3-), annealed duplex; 50 mM ammonium acetate pH 7; remark: listed apart in the source
[6] = biological target: Redβ single strand annealing protein from bacteriophage λ (bacteriophage λ) (UniProt P03698); experiment: native MS; Redβ alone, no DNA, at 1 μM or greater (up to 30 μM); 50 mM ammonium acetate pH 7; monomers to 12-mer
[7] = biological target: Redβ single strand annealing protein from bacteriophage λ (bacteriophage λ) (UniProt P03698); experiment: SEC-MALS; Redβ alone, no DNA; Superose 6 increase 3.2/300, PBS, 0.04 ml/min; loaded at 34, 67 and 101 μM, eluted at 6.0, 13.5 and 18.5 μM; weight-average mass; monomers to oligomer
[8] = biological target: Redβ single strand annealing protein from bacteriophage λ (bacteriophage λ) (UniProt P03698); experiment: native MS; Redβ alone, no DNA, at 1 μM or greater (up to 30 μM); 50 mM ammonium acetate pH 7; monomers to 12-mer; remark: listed apart in the source
[9] = biological target: Redβ single strand annealing protein from bacteriophage λ (bacteriophage λ) (UniProt P03698); experiment: SEC-MALS; Redβ with dT38 ssDNA (6 nt/monomer, 22°C, 30 min); Superose 6 increase, PBS; loaded at 34 μM; n assumes one copy of dT38
[10] = biological target: Redβ single strand annealing protein from bacteriophage λ (bacteriophage λ) (UniProt P03698); experiment: SEC-MALS; Redβ with 83- ssDNA (6 nt/monomer, 22°C, 30 min); Superose 6 increase, PBS; loaded at 34 μM; n assumes one copy of the 83-mer
[11] = biological target: Redβ single strand annealing protein from bacteriophage λ (bacteriophage λ) (UniProt P03698); experiment: native MS; 1 μM Redβ with two complementary strands added sequentially (83-:83+ or 83-:87+), annealed duplex; 50 mM ammonium acetate pH 7; remark: listed apart in the source
[12] = biological target: Redβ single strand annealing protein from bacteriophage λ (bacteriophage λ) (UniProt P03698); experiment: SEC-MALS; Redβ with dT38 ssDNA (6 nt/monomer, 22°C, 30 min); Superose 6 increase, PBS; loaded at 34 μM; n assumes one copy of dT38; remark: listed apart in the source
[13] = biological target: T1, Redβ single strand annealing protein (bacteriophage λ, UniProt P03698); experiment: EMSA; strands added sequentially, PBS; EMSA: 10 uM Redβ, 50 uM nt DNA, 37 C, in PBS, or 20 mM Tris-HCl pH 7.5/10 mM NaCl/10 mM MgCl2, or 50 mM ammonium acetate pH 7.0; SEC-MALS: PBS, complexes formed; conditions: protein: recombinant; tags: N-terminal GSH left after thrombin removal of 6xHis; chain copies: 11; label: 5'-Cy5, 5'-Cy3; blunt
T1 sequence: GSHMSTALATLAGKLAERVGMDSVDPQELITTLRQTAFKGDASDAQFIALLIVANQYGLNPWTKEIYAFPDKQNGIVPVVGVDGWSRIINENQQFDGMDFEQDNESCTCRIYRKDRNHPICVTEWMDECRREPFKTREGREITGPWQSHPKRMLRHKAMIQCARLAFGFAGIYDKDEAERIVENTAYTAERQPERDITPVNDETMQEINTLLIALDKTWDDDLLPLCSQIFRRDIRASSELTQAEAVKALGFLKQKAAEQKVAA

[14] = biological target: T1, Redβ single strand annealing protein; experiment: native MS; 1 uM Redβ and higher; 8-13 subunits; EMSA: 10 uM Redβ, 50 uM nt DNA, 37 C, in PBS, or 20 mM Tris-HCl pH 7.5/10 mM NaCl/10 mM MgCl2, or 50 mM ammonium acetate pH 7.0; SEC-MALS: PBS, complexes formed; conditions: protein: recombinant; tags: N-terminal GSH left after thrombin removal of 6xHis; chain copies: 11
[15] = biological target: T1, Redβ single strand annealing protein; experiment: native MS; 1 uM Redβ; 5-15 subunits, 1 or 2 DNA; EMSA: 10 uM Redβ, 50 uM nt DNA, 37 C, in PBS, or 20 mM Tris-HCl pH 7.5/10 mM NaCl/10 mM MgCl2, or 50 mM ammonium acetate pH 7.0; SEC-MALS: PBS, complexes formed; conditions: protein: recombinant; tags: N-terminal GSH left after thrombin removal of 6xHis; chain copies: 11
[16] = biological target: T1, Redβ single strand annealing protein; experiment: EMSA; PBS, ssDNA alone; EMSA: 10 uM Redβ, 50 uM nt DNA, 37 C, in PBS, or 20 mM Tris-HCl pH 7.5/10 mM NaCl/10 mM MgCl2, or 50 mM ammonium acetate pH 7.0; SEC-MALS: PBS, complexes formed; conditions: protein: recombinant, tags: N-terminal GSH left after thrombin removal of 6xHis, chain copies: 11
[17] = biological target: T1, Redβ single strand annealing protein; experiment: SEC-MALS; PBS; 427 kDa, n=14.0; EMSA: 10 uM Redβ, 50 uM nt DNA, 37 C, in PBS, or 20 mM Tris-HCl pH 7.5/10 mM NaCl/10 mM MgCl2, or 50 mM ammonium acetate pH 7.0; SEC-MALS: PBS, complexes formed; conditions: protein: recombinant; tags: N-terminal GSH left after thrombin removal of 6xHis; chain copies: 11
[18] = biological target: T1, Redβ single strand annealing protein; experiment: native MS; strands added sequentially, 1 uM Redβ; 11 subunits; EMSA: 10 uM Redβ, 50 uM nt DNA, 37 C, in PBS, or 20 mM Tris-HCl pH 7.5/10 mM NaCl/10 mM MgCl2, or 50 mM ammonium acetate pH 7.0; SEC-MALS: PBS, complexes formed; conditions: protein: recombinant, tags: N-terminal GSH left after thrombin removal of 6xHis, chain copies: 11
[19] = biological target: T1, Redβ single strand annealing protein; experiment: EMSA; added first, then noncomplementary Cy5 50mer; unusually high affinity; EMSA: 10 uM Redβ, 50 uM nt DNA, 37 C, in PBS, or 20 mM Tris-HCl pH 7.5/10 mM NaCl/10 mM MgCl2, or 50 mM ammonium acetate pH 7.0; SEC-MALS: PBS, complexes formed; conditions: protein: recombinant; tags: N-terminal GSH left after thrombin removal of 6xHis; chain copies: 11; label: 5'-Cy3

Redβ single strand annealing protein from bacteriophage λ (from UniProt P03698 1-261) (natural protein)
stoichiometry N [1]: 9 subunits and 10 subunits
stoichiometry N [2]: 21 subunits and 23 subunits
stoichiometry N [3]: 18.2 subunits
stoichiometry N [4]: 11.3 subunits
stoichiometry N [5]: 11 subunits
midpoint of the transition from monomer to 12-mer [6]: 1 µM
stoichiometry N [6]: 1 to 14 subunits
stoichiometry N [7]: 8.6 subunits and 9.1 subunits
stoichiometry N [8]: 12 subunits
stoichiometry N [9]: 14 subunits
stoichiometry N [10]: 21.1 subunits
stoichiometry N [11]: 22 subunits
stoichiometry N [12]: 14.1 subunits

Redβ single strand annealing protein from bacteriophage λ (from UniProt P03698 1-261)
stoichiometry N [7]: 7.7 subunits

B1: 24mer annealed duplex (dsDNA)
DNA 1: AAAATCGAGCTATGCAGGGCGATT
DNA 2: AATCGCCCTGCATAGCTCGATTTT
binding result [13]: binds

AAAAAAAAAAAAAAAAAAAAAAAAAAAAAAAAAAAAAA (ssDNA) [dA38]
binding result [14]: binds

TCGGATCTCGTTGCATCTAGCGTCCGTTTACTGTGTCT (ssDNA) [38NC1-]
binding result [15]: binds

GCCCTGCATAGCTCGATTTT (ssDNA) [Cy3 20mer]
binding result ([16]; label: 5'-Cy3): no binding

AAAATCGAGCTATGCAGGGC (ssDNA) [Cy5 20mer]
binding result ([16]; label: 5'-Cy5): no binding

TTTTTTTTTTTTTTTTTTTTTTTTTTTTTTTTTTTTTT (ssDNA) [dT38]
binding result [17]: binds

AAAATCGAGCTATGCA (ssDNA) [Cy5 16mer]
binding result ([16]; label: 5'-Cy5): no binding

AAAATCGAGCTATGCAGGGCGATTCTGC (ssDNA) [Cy5 28mer]
binding result ([16]; label: 5'-Cy5): no binding

GCAGAATCGCCCTGCATAGCTCGATTTT (ssDNA) [Cy3 28mer]
binding result ([16]; label: 5'-Cy3): no binding

B2: 28mer annealed duplex (dsDNA)
DNA 1: AAAATCGAGCTATGCAGGGCGATTCTGC
DNA 2: GCAGAATCGCCCTGCATAGCTCGATTTT
binding result [13]: binds

GACGCACAATGACAGATAACACAATGGCGAGATAACGC (ssDNA) [38NC3+]
binding result [15]: binds

B3: 38NC3+:40NC3- (dsDNA)
DNA 1: GACGCACAATGACAGATAACACAATGGCGAGATAACGC
DNA 2: GCGTTATCTCGCCATTGTGTTATCTGTCATTGTGCGTCGC
binding result ([18]; 3' overhang 2 nt on strand 2): binds

TGCATAGCTCGATTTT (ssDNA) [Cy3 16mer]
binding result ([16]; label: 5'-Cy3): no binding

B4: 20mer annealed duplex (dsDNA)
DNA 1: AAAATCGAGCTATGCAGGGC
DNA 2: GCCCTGCATAGCTCGATTTT
binding result [13]: binds

GAGTGATAGGCATATGTGCTACGAGTATCGAAGGAACGGTCACTACGCAA (ssDNA) [Cy3 NC 50mer]
binding result [19]: binds

AATCGCCCTGCATAGCTCGATTTT (ssDNA) [Cy3 24mer]
binding result ([16]; label: 5'-Cy3): no binding

AGACACAGTAAACGGACGCTAGATGCAACGAGATCCGA (ssDNA) [38NC1+]
binding result [15]: binds

B5: 38NC1+:38NC1- (dsDNA)
DNA 1: AGACACAGTAAACGGACGCTAGATGCAACGAGATCCGA
DNA 2: TCGGATCTCGTTGCATCTAGCGTCCGTTTACTGTGTCT
binding result ([18]; blunt): binds

AAAATCGAGCTATGCAGGGCGATT (ssDNA) [Cy5 24mer]
binding result ([16]; label: 5'-Cy5): no binding

GCGTTATCTCGCCATTGTGTTATCTGTCATTGTGCGTCGC (ssDNA) [40NC3-]
binding result [15]: binds
